Laboratory results published in patent US20170137467A1 (CHROMOTEK, published 2017).
Square brackets hold non-standard residues; d marks the D form. GABA = NCCCC(=O)O

Key:
Assay in all cases: peptide library pulldown on immobilized Nb, LC-MS of supernatant; ratio vs GFP-Nb control (1 = not captured, 0 = captured)
[1] = molecular target: T1, BC2T Q12V library peptide (human)
T1 peptide: Ac-PDRKAAVSHWQV-NH2
Summary of the method: (§1)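 Unbound peptide left in supernatant after 1 h pulldown in PBS/0.01% CHAPS measured by reversed-phase LC-MS (8–30% eluent B gradient, 20 min).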

[2] = molecular target: T2, BC2T S8(I/L) library peptide, version 2 (N-terminal acetyl, C-terminal amide)
T2 construct: Ile and Leu versions are isobaric; two versions resolved but not assigned; also called BC2TS8X: I/L2
Summary of the method: as §1

[3] = molecular target: T3, BC2T W10K library peptide (human)
T3 construct: also called BC2TW10X: K
T3 peptide: Ac-PDRKAAVSHKQQ-NH2
Summary of the method: as §1

[4] = molecular target: T4, BC2T W10M library peptide (human)
T4 construct: also called BC2TW10X: M
T4 peptide: Ac-PDRKAAVSHMQQ-NH2
Summary of the method: as §1

[5] = molecular target: T5, BC2T Q11V library peptide (human)
T5 peptide: Ac-PDRKAAVSHWVQ-NH2
Summary of the method: as §1

BC2T H9E library peptide = molecular target: T6, BC2T H9E library peptide (human)
T6 peptide: Ac-PDRKAAVSEWQQ-NH2
Summary of the method: as §1

[6] = molecular target: T7, BC2T Q11F library peptide (human)
T7 peptide: Ac-PDRKAAVSHWFQ-NH2
Summary of the method: as §1

BC2T S8Q library peptide = molecular target: T8, BC2T S8Q library peptide (human)
T8 construct: also called BC2TS8X: Q
T8 peptide: Ac-PDRKAAVQHWQQ-NH2
Summary of the method: as §1

[7] = molecular target: T9, BC2T Q12G library peptide (human)
T9 peptide: Ac-PDRKAAVSHWQG-NH2
Summary of the method: as §1

[8] = molecular target: T10, BC2T H9C* library peptide (human, SMILES …)
T10 construct: also called C(Abu)
T10 peptide: Ac-PDRKAAVS[GABA]WQQ-NH2
Summary of the method: as §1

[9] = molecular target: T11, BC2T Q11E library peptide (human)
T11 peptide: Ac-PDRKAAVSHWEQ-NH2
Summary of the method: as §1

[10] = molecular target: T12, BC2T Q11P library peptide (human)
T12 peptide: Ac-PDRKAAVSHWPQ-NH2
Summary of the method: as §1

BC2T H9S library peptide = molecular target: T13, BC2T H9S library peptide (human)
T13 peptide: Ac-PDRKAAVSSWQQ-NH2
Summary of the method: as §1

BC2T S8W library peptide = molecular target: T14, BC2T S8W library peptide (human)
T14 construct: also called BC2TS8X: W
T14 peptide: Ac-PDRKAAVWHWQQ-NH2
Summary of the method: as §1

B1: BC2-Nb(R106E) (VHH)
VHH: QVQLVESGGGLVQPGGSLTLSCTASGFTLDHYDIGWFRQAPGKEREGVSCINNSDDDTYYADSVKGRFTIFMDNAKDTVYLQMNSLKPEDTAIYYCAEARGCKRGEYEYDFWGQGTQVTVSS
notes: Headlock mutant; immobilized on beads in the library pulldown
ratio [1]: 0.1 | ratio [2]: 0.9 | ratio [3]: 1.3 | ratio [4]: 1.1 | ratio [5]: 0.2 | ratio (BC2T H9E library peptide): 0.5 | ratio [6]: 0.1 | ratio (BC2T S8Q library peptide): 0.9 | ratio [7]: 0.2 | ratio [8]: 0.3 | ratio [9]: 0.4 | ratio [10]: 0.9 | ratio (BC2T H9S library peptide): 0.4 | ratio (BC2T S8W library peptide): 0.9
